Measured values published in article PMC8081924 (The Journal of Biological Chemistry, 2021).
Numbering of substitutions follows the chain as printed. Names and notes keep the numbering of the source. Values joined by “and” are separate entries in the source; they are usually repeats but may differ in a detail not shown here. Equal entries are not always repeated. Where two headings read alike, the source gives them in different places.

B1: sPHGDH (catalytic unit of human D-3-phosphoglycerate dehydrogenase, 1-307), wild type (domain or fragment, UniProt O43175 1-307, looked up)
chain: MAFANLRKVLISDSLDPCCRKILQDGGLQVVEKQNLSKEELIAELQDCEGLIVRSATKVTADVINAAEKLQVVGRAGTGVDNVDLEAATRKGILVMNTPNGNSLSAAELTCGMIMCLARQIPQATASMKDGKWERKKFMGTELNGKTLGILGLGRIGREVATRMQSFGMKTIGYDPIISPEVSASFGVQQLPLEEIWPLCDFITVHTPLLPSTTGLLNDNTFAQCKKGVRVVNCARGGIVDEGALLRALQSGQCAGAALDVFTEEPPRDRALVDHENVISCPHLGASTKEAQSRCGEEIAVQFVDMV
B2: sPHGDH R135W (domain or fragment, human, UniProt O43175 1-307, looked up)
chain: B1 chain with R135W
B3: sPHGDH R236E (domain or fragment, human, UniProt O43175 1-307, looked up)
chain: B1 chain with R236E
B4: sPHGDH R135A (domain or fragment, human, UniProt O43175 1-307, looked up)
chain: B1 chain with R135A
B5: full-length human D-3-phosphoglycerate dehydrogenase (PHGDH, 1-533), wild type (enzyme, UniProt O43175 1-533, looked up)
chain: MAFANLRKVLISDSLDPCCRKILQDGGLQVVEKQNLSKEELIAELQDCEGLIVRSATKVTADVINAAEKLQVVGRAGTGVDNVDLEAATRKGILVMNTPNGNSLSAAELTCGMIMCLARQIPQATASMKDGKWERKKFMGTELNGKTLGILGLGRIGREVATRMQSFGMKTIGYDPIISPEVSASFGVQQLPLEEIWPLCDFITVHTPLLPSTTGLLNDNTFAQCKKGVRVVNCARGGIVDEGALLRALQSGQCAGAALDVFTEEPPRDRALVDHENVISCPHLGASTKEAQSRCGEEIAVQFVDMVKGKSLTGVVNAQALTSAFSPHTKPWIGLAEALGTLMRAWAGSPKGTIQVITQGTSLKNAGNCLSPAVIVGLLKEASKQADVNLVNAKLLVKEAGLNVTTSHSPAAPGEQGFGECLLAVALAGAPYQAVGLVQGTTPVLQGLNGAVFRPEVPLRRDLPLLLFRTQTSDPAMLPTMIGLLAEAGVRLLSYQTSLVSDGETWHVMGISSLLPSLEAWKQHVTEAFQFHF
B6: full-length PHGDH G140R (enzyme, human, UniProt O43175 1-533, looked up)
chain: B5 chain with G140R
B7: full-length PHGDH I121A (enzyme, human, UniProt O43175 1-533, looked up)
chain: B5 chain with I121A
B8: full-length PHGDH E108A (enzyme, human, UniProt O43175 1-533, looked up)
chain: B5 chain with E108A
B9: full-length PHGDH R119A (enzyme, human, UniProt O43175 1-533, looked up)
chain: B5 chain with R119A

Assays:
[1] = target: the molecule itself
AUC [2] = target: the molecule itself; assay: AUC
O43175 = assay: AUC
AUC [3] = target: the molecule itself; assay: AUC; remark: listed apart in the source
[4] = target: the molecule itself; assay: cell-based or functional assay
AUC [5] = target: the molecule itself; assay: AUC; remark: listed apart in the source
AUC [6] = target: the molecule itself; assay: AUC; remark: listed apart in the source

Protein	stoichiometry N (AUC [3])	stoichiometry N (AUC [6])	further results
B1	–	–	Kd [1]: 580 nM; stoichiometry N (AUC [2]): 2; total concentration at which the dimer and monomer peak ratio is 1:1 (O43175): the 1:1 ratio at about 1 μM
B2	2	–	–
B3	2	–	–
B4	2	–	enzyme activity of the sPHGDH mutant at 2.4 μM against WT [4]: ~80 % of WT
B5	–	–	stoichiometry N (AUC [5]): 2 and 4
B6	–	2	–
B7	–	2	–
B8	–	2	–
B9	–	2	–
